{
  "source": "paper PMC7814660",
  "about": "(Nature, 2020)",
  "proteins": {"B1": {"name": "caspase 7-cleaved human Pannexin 1 (ΔCTT-hsPANX1) (domain or fragment, UniProt Q96RD7 1-379, looked up)", "chain": "MAIAQLATEYVFSDFLLKEPTEPKFKGLRLELAVDKMVTCIAVGLPLLLISLAFAQEISIGTQISCFSPSSFSWRQAAFVDSYCWAAVQQKNSLQSESGNLPLWLHKFFPYILLLFAILLYLPPLFWRFAAAPHICSDLKFIMEELDKVYNRAIKAAKSARDLDMRDGACSVPGVTENLGQSLWEVSESHFKYPIVEQYLKTKKNSNNLIIKYISCRLLTLIIILLACIYLGYYFSLSSLSDEFVCSIKSGILRNDSTVPDQFQCKLIAVGIFQLLSVINLVVYVLLAPVVVYTLFVPFRQKTDVLKVYEILPTFDVLHFKSEGYNDLSLYNLFLEENISEVKSYKCLKVLENIKSSGQGIDPMLLLTNLGMIKMDVVD"}, "B2": {"name": "Pannexin 1 (hsPANX1): N255A (protein)", "parent chain": "MAIAQLATEYVFSDFLLKEPTEPKFKGLRLELAVDKMVTCIAVGLPLLLISLAFAQEISIGTQISCFSPSSFSWRQAAFVDSYCWAAVQQKNSLQSESGNLPLWLHKFFPYILLLFAILLYLPPLFWRFAAAPHICSDLKFIMEELDKVYNRAIKAAKSARDLDMRDGACSVPGVTENLGQSLWEVSESHFKYPIVEQYLKTKKNSNNLIIKYISCRLLTLIIILLACIYLGYYFSLSSLSDEFVCSIKSGILRNDSTVPDQFQCKLIAVGIFQLLSVINLVVYVLLAPVVVYTLFVPFRQKTDVLKVYEILPTFDVLHFKSEGYNDLSLYNLFLEENISEVKSYKCLKVLENIKSSGQGIDPMLLLTNLGMIKMDVVDGKTPMSAEMREEQGNQTAELQGMNIDSETKANNGEKNARQRLLDSSC"}, "B3": {"name": "wild type human Pannexin 1 (wt-hsPANX1) (natural protein, UniProt Q96RD7 1-426, looked up)", "chain": "B2 parent chain", "modifications": "N-glycosylated at N255 (N-acetylglucosamine modelled)"}, "B4": {"name": "glycosylation-deficient mutant N255A of human Pannexin 1 (N255A-hsPANX1) (natural protein, UniProt Q96RD7 1-426, looked up)", "chain": "B2 parent chain with N255A"}},
  "key": {"cryo-EM structure [1]": {"molecular_target": "the molecule itself", "test": "cryo-EM structure"}, "[2]": {"test": "cryo-EM structure superimposition of subunits", "conditions": "glycan lost; control: wild type"}, "[3]": {"test": "whole-cell patch clamp, CBX-sensitive current density, +80 mV", "conditions": "glycan lost; control: wild type"}, "cryo-EM structure [4]": {"molecular_target": "the molecule itself", "test": "cryo-EM structure", "remark": "listed apart in the source"}},
  "note": "Residue numbers refer to the chain shown, from its start. In names and notes the source's numbering stands.",
  "data": [
    {"protein": "B1", "values": [
      {"measurement": "binding result", "setting": "cryo-EM structure [1]", "value": "binds"}
    ]},
    {"protein": "B2", "values": [
      {"measurement": "structure_or_conformation", "setting": "[2]", "value": "changes"},
      {"measurement": "other: channel current", "setting": "[3]", "value": "changes"}
    ]},
    {"protein": "B3", "values": [
      {"measurement": "stoichiometry N", "setting": "cryo-EM structure [1]", "value": 7}
    ]},
    {"protein": "B4", "values": [
      {"measurement": "ratio of gap junctions to hemichannels", "setting": "cryo-EM structure [4]", "value": "~0.2 gap junctions : hemichannels"}
    ]}
  ]
}
